# Assay results as given in a protein production outcome set (Wang et al. 2014).
# Test: label from the status in PepcDB records
row,Sequence,protein production
1,MVAVTYSPGPHLERFLASLSLATERPVSVLLADNGSTDGTPQAAVQRYPNVRLLPTGANLGYGTAVNRTIAQLGEMAGDAGEPWVDDWVIVANPDVQWGPGSIDALLDAASRWPRAGALGPLIRDPDGSVYPSARQMPSLIRGGMHAVLGPFWPRNPWTTAYRQERLEPSERPVGWLSGSCLLVRRSAFGQVGGFDERYFMYMEDVDLGDRLGKAGWLSVYVPSAEVLHHKAHSTGRDPASHLAAHHKSTYIFLADRHSGWWRAPLRWTLRGSLALRSHLMVRRSRRRKLKLVEGRH,failed
2,MKNKFIFITVVSILLIAAGIFTTIAMANANSVVVKAEVLNVRSGPGLAYDVTSQARKNEVLRVVGEENQWYKVQLDNGNSGWVASWLVENTDVSAASNSIAIVSSDGGLNVREKPSTSSTSLGLLNNGDQVTVTSQQNGWAQIQYNGKSAWVSSQYLTIRESVTKVDESELQTVTIRDDSTNIRNKPGRDGAVIEKANSGQGFAIQGVQGDWYKIRTTSGEEGYVANWVVDVSDKGQTSSPRSKTTKLSEATIVIDPGHGGNDPGAKGANGTIEKEMTLKTAKKLKEKLESRGAKVILTRNSDKYVSLKSRTNVAAENKADVFISIHFDSLEDSSKGVSGQTTYYYDNSDKSLAESINTTLGNDLPTTNRGSRVGDYYVVRENSQPAVLLELGYLSSAKDERNINSASYRSQIADSVTDGLSNYFSN,failed
3,MSQILTITFPIYAALAVGFLVVRQGWFSSADMRVLGRYVMDIALPALLFNAVASRDVAEVFHPGYMLAFAAAGLATVALSYLWFTLTGTEARRRAVAVMGSSCPNSGFVGYPVMLLTFPDLAGVILALNMLVENVLIIPACLILTDMARGRGQGGIGQRIAGILWGVLKRPMVIGLLLGLAVSLAGVPVPQTVTRLMQMLAASASALALVVIGGSLAGLSWKGSRWHAVQISALKLLLHPALALLAVILVAAIGLPLDPDMGTALILSAAMPMFGIYAVLAQELGHEGMASIALLTATTLAFFTLSGLLWWLT,failed
4,MKNQLELIAESYDKGIDYGRRGISLYDDLPEYITNNPDYIIYKKTTESIEPSVYSGYKEIREYLSPTTNMKFIDLGCCLNLMFNGYDQWASTYHGVDISSKTIELLNEFSTNNKLHIGALICGSIHETPFDANYFDIGACIGVLEYYKKDFVEKALIEAHRIIKPGGKLVLDIPNIVSPACRGMILLEEHAGRTDQFDMLPLDFENMLCNYFEIEKVEKANAWAMFQYFLSCKK,failed
5,MQKIPGYENTNSEVPDKKYWLYGLMIVFFALAFRLFELGERVLHHDESIHASFTLKLLEHGEYSYDPAYHGPFLFHSTAAVFHFLGITDTTSRLVPVLFGVATILLLFLLKKELGKNGVLWSMFLLAFSPSMVYFSRFFRNDMIIIFCTLAAVTGAFRYLDSIHSLKRYPYLVLAASSLAVAVSSKENAYIILAVFGAYAGLGFLYWICSDWKKENMGLKETLRSKTSALLPYLPEIILSGALSVFIIMFFYSSAFRYDVSLFSIVERAFNHWMEMHSIERIGGPFYYYIPILLRYEIPVVLFGAAGFFYFLFNRVRNKGQNYSFFLFLCYWALTSLLLYSYIQEKVPWLVVHIVLPFGLLAGAFLGEVFSKKNKDGQPKKPDYPGKIRALLTVILVLTLLVFISQCISVNYYRSMEDEELITYTQASPDIRILMEKIEGFNESPDTLRIYVIDQYQLYWPLPWYLRDYERAAYSSKPPSSSKYDAIIVPISCDMYRELSEEEYSSYNFTLRPGRDFTLYYNNKLEQQ,failed
6,MLLEVIPLTLPLLLTLLPIVVILVMLLVFRKAADVSGIIGWLAISVVAWLGFQTAPEVILRSTAAGFIRSFSVSLIVATSLLQMALMEKTGALRRITIFIRTIASDNRAVQIMMINIGFGTLMVAVGATPVSILPPILLAMGYSTYVAIALPAIGYDSLCTYALLGAPIVVFVDIANSFLGKGNEIALHQAGMVFYMFLPVVSTMIGFCMLWIVGKWQAIRDGWLPCLLTGAVIGVVARFTNQYDNLVVLTGVLCGIAVIAAMAAYLVVTGGKVIDRSLLSAEEREFAAAMPLWRAFMPWTLLVILILVLNVPQDLFSWLYRTMKLPIAGLTADGKPLDTRALWQAYTWILVSTILAVPFLKPTGEQLRETVRTWVRRAPRPVFAAAVFFAIGEIMNMAGYDMAAGRFVVPSMVTVLADSSALAFQGMYGEVVAFIGLFGGFITGSEASTIAMFAKYTMTTAKNLDMPLSGLIIVTAGLAFGGGLASVISPAKLQNAAAAIDRIGEEGKVIRIAFVFALLLTLVTSLFVVVLLTVNGMGRVS,failed
7,MSKRSEVLEQFHGGLKNLELQTKRRMGLWGDPKENEEQTLFLEEIENELKQLENKENLKADNNTEFKEENQDTKENQPNDLFSLPLPTQTTINGIKEFVEEPVIETEKKETSQNEPIQEKKERIFKNFFSRIGFDKSIAPTMLFEEVRDASVIYHLEKKLGDYIFYVACFFFGTTALLIILLTILLPLKQKEPYLVQFSNNKENFALVQKADSSITANKALIRSLVGAYVLNRESITHIEQHEKMRQNTIKEQSSNEVWYEFEKLIAHYDSIYTNPLLTRKVKIANIYLDKDLAYIDIEVSLYHSGELESLKRYKVVMSFEFKKQEINFDSMSLNPTGFMVTSYDVTEIAIVNYPTAKAIGLFLAS,failed
8,MQTIIYQIAPNDWVTDEVLMASTGLKPGTILRARKKAWFVGREYKHMTLDGKPKANGECLYHLPTINRWIRNMPDPDVDLLEHHHHHH,not failed
9,MKKINSAVLSIASNSMLIIFKLTAGITMNSISVLSEGVHSSIDLIASLIAFFSIKKSSLKEDDDHPFGHGKYENVSGFVEAILIMFAAIMIIYEAFNKLVSNSHVKNIDSGIYIMLISSAVNLFISIILLKSSKDTNSIALEADGMHLFTDFFTSLGVFLGLVLLKLTNIKIIDSITAFLVAILIIKTAVDLIKKSLRDLVDSSLDKDDINKIVKIVKKYPNIKEYHKLRTRRCGNTREIDIHIQIVGTDSLKETHDICSSIEDEIRRVFPDSCTVIHAEPYIEKFHKKSLT,failed
10,MSRSRHCPAVLIAAPASGQGKTTVTAALARLHRNLGRKVRVFKCGPDFLDPMILERASGAPVYQLDLWMIGAEESRRLLWEAAGEADLILIEGVMGLFDGTPSSADLARHFGVPVLAVIDGTAMAQTFGALALGLARYQADLPFAGVLANRVGSLRHAQLLEGSLTEGLRWYGGLSRERGIELPSRHLGLVQASELNDLDTRLDAAAEALGASCDAALPPPVSFAEPEPQACVASLAGVRIGVARDEAFAFIYGANLDLLRNLGAQLVFFSPLHDHELPAVDSLYLPGGYPELHHHALAANAPMCEAIRAHHAQGKPLLAECGGMLYLLDALTDVAGERAELLGLLPGEATMQKRLAALALQAVELPEGTLRGHTYHHSLTSTALEPIARGLSPNGGRGNEAVYRLGRLTASYVHFYFPSCPDAAAALLRP,failed
11,MRISAKKPRPRPIFALCAPYPEAQPQEAEVRVRTSILAFVLAAVSTIAGAQDSGLTSLETTDAGRSWLAVGRLDIDGTGFCTGALIAPDLVLTAAHCLYDKTTGQRIDPARIEFLAGWRRGRASAYRRVARAVHHPDYLYEGAVTAERVRNDLALLKLSQPIRNTTVVPFETGNRPMRGDAVQVVSYAHDRAEAPSLQEACAVMARQQGVLVMSCDVDFGASGSPVFSLSDSTPRIVSVVSAKAEVDGARVALGTSLDDTLTFLMGELDSHKRAEIPTVPRVNRLSASGQGSASGAKFVRP,failed
12,MPIIKTLTKATKLEKEKFTIPKSVQDAIPIQRIWPDGIFQVGSRFSKTFSFTDINYSIASKDDKTAMFLDYSELLNALDSGASAKITIHNRRIDKAQFEKSLLLPMREDGLDHFRREYNEMLLSKVTGTNNSVVQDRYITITVAKRNIDEARTYFSRVGTDLINHLSQLSSVGRELDAAARLQLFRDFFKGSEPAAFAFDLREHMKKGHSFKDWLCPDSMEFQKDHFRIDERWGRVLYLQDYATYIKDSMIAELCDMDRSLMLAIDVLPVPTDEAVREIQNKLLGVETNAANWQRKQNAANNFSAVLPYDMEQQRKETKEMLDDLTNRDQRMMFGLVTLVHLADTKEQLDSDTETILTVARKHLCQMSTLRWQQKDGLDTVLPYGLRKIHALRTLTTESTAVLIPFRAQEILQGGGIYYGQNAVSKNMIVADRRKLLNGNSFRLGVSGSGKSFSAKEEIVSIALSTDDDILILDPESEFGFLTEALGGEVIRVSASSDTHINALDMDKAYGDERNPLIEKSEFILSLFEQLVGAGGVSAKEKSILDRCTYDVYREYMANNYQGEVPTLKDLYQSLLKQPEPEARGLALSSELFITGSLNTFAQPTNVDTKARIIAYDIRELGEQLMPIGMLVTLDAIFNRVIQNWKKGKTTWVFADEFYLLFRYQYSADFFYKLWKRIRKYNGLVTGLTQNVEELLRSDTARLMLANSEFLILLNQSPTDRDELAGLLHISDTQLGYITNVSAGCGLIRCAGNIVPFENSFPRNTRLYQLMTTKPDEALRGVLEHHHHHH,failed
13,MEKLGQFIINHWQLWLAFVVVVFLIFINEILSQRKKAKEVSPQSLVDLMNNGNAIVIDIRDKESFKNGHIINSMNVNPDDFEQQKMSKYKDKPIILVCARGLQSPTLAMKIRNQGYQPLVLSGGIQAWQNADLPLVKGK,failed
14,MTEFKVVHTICPYCGTGCGIDLVVKDGKVVDSHPFKRHPVNEGKVCIKGNYCYEFVHSEDRLTKPLIKKNGEFIEATWDEALDLIAGKLKQYSPEEVAFFSCARGTNEESYALQKFARTVMKTNNVDHCARI,failed
15,MHMALIHSILMGAVAGMRSMTPLAAVANAARTGKLPADNGAPALLANPLASAGMLALAGGELAGDKMKTAPDRIVLPGMIARIATGVIVGTALAPREQRGIAALLGATTAVAAAYLTFNARMRAIERYGQTSTGVVEDAISVGAATLIVRDAAKR,failed
16,APFFEMKLKHYKIFEGMPVTFTCRVAGNPKPKIYWFKDGKQISPKSDHYTIQRDLDGTCSLHTTASTLDDDGNYTIMAANPQGRISCTGRLMVQAVN,not failed
17,MKKKYFLCVFAVILFFTGFLFGNSPVNAAETDTSNVTYNYIDISTLTETQKNSIIKGNPNETLTNDYENYSFVYQKNTSEPTTNTDNTSDNNKNQNGTLLKAGDVGPNSYLIILGFILFGSGIGLLTLKKRHARQLLVFLVVLGGSSLLVGSIVQATENSNLKTQESQTVAKGTKETKQPESMEGYTYVGYIHTSKNNTPPVVEKGTVTVNYQDEQGNSLATSETLEGDIDQPYQTATKNIEGYQLKEVNGNTTGTFTEKAQVVTYVYQKVPVATVTVKYLDQDGNKIHDPQTISGNIGEPYDASTDKYKLRIEGYTLDTTKLPNNANGTFTNQAIEVTYIYTKEAQDVKITIKFVDSNGDPFVLTDLTTYKNGDLVPIYPNLDQYHMRLNYNQEIYNQGEAVPDIVIPAKEGETYSLPERMTFNILDDQGKQIPYVISQNADLSSTGIERWENYLSIPTNREGTLTSEDVVVTYQILVYGVMIPEP,failed
18,MSMKGISSAESDKLSRRISLTHKRNSEELDVFEAAVYFGYNEASSGDHGHTQKYGYNAAREENPRRWGILGGGRRISLDLPIRCSEQVYHLQQDHHEKHEVTTIKERLGNVRHKQPSSPGGKIASFLNSLFHQAGSKKNKSKSKSKTKPTDPEVEEEIPGGGWMRRRRRSSISHFFSSSRSTSTTTTTTASSSSKSLISSSSSGFRTPPPYLNTPTKNYKQFLNYTSATKQVGEEETKTNKEYSWLDEKLKVMESLSENQRIWSDDEDIDDDRRIKREGEDDGMESDSSSDLFELQNYELSRGGLPVYETTNVANINKTHI,failed
19,MIYLRKANERGHANHGWLDSWHTFSFANYYDPNFMGFSALRVINDDVIEAGQGFGTHPHKDMEILTYVLEGTVEHQDSMGNKEQVPAGEFQIMSAGTGIRHSEYNPSSTERLHLYQIWIMPEENGITPRYEQRRFDAVQGKQLVLSPDARDGSLKVHQDMELYRWALLKDEQSVHQIAAERRVWIQVVKGNVTINGVKASTSDGLAIWDEQAISIHADSDSEVLLFDLPPV,not failed
20,MNRHLIHRRDILDTLVADLQAQQPDHIAVTGDLVNIALVNEFAPARQWLESVGPADRVSLVPGNHDAYVRSTAHRFAETFPDYISGDDATPGFPYLRRREAIAIIGVSSAVPTAPLRATGWLGAPQRAALEALLQSLAGERVFKVLLIHHPLQSRSRHKRLTDAADLIALLQRHPVDLVLHGHDHVHATVRIDTPFGAIPVVGVPSASAMNDRHRPSAAYNLFKISEGNDGWRCLEHHHHHH,failed
